Measurements published in the supplement of paper PMC12042874.
± gives the uncertainty stated by the source.

Assay: amyloid nucleation score (Sup35N fusion, yeast selection) (log enrichment); library NNK1; higher = more nucleation; inactive = no reads after selection
In short: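 The nucleation score equals the log enrichment of output over input reads from DiMSum, centred on the mode score of non-aggregating sequences. It was computed only for sequences with 100 or more input reads. The reads came from Illumina sequencing of plasmid inserts from psi-negative yeast expressing Sup35N fused to peptides of 20 random codons, induced with 100 μM copper sulfate for 24 hours and grown 7 days at 30°C without adenine and uracil.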

| Substance | amyloid nucleation score |
| --- | --- |
| IVFDSLRGCSF | inactive |
| IVFLVLRTANRMWNDYHAS | -0.075 ± 0.33 |
| IVFNIYLILAKWWVTVTYSD | -1.25 ± 0.5 |
| IVFVLQGRRQ | 0.634 ± 0.88 |
| IVGSSQLSYLGLAFSYGVQV | -0.903 ± 1.7 |
| IVGVYLSLNWRHPSRQGSGC | 0.321 ± 0.19 |
| IVMCTVGKSLMIAQKDHAWA | -0.109 ± 0.61 |
| IVNFRVNRPSL | 0.205 ± 0.31 |
| IVVSVVTASI | -0.018 ± 0.75 |
| IWCHRSGRLFPSMLLKYYRD | -0.766 ± 1.7 |
| IWMWEWQHCSEARKNMMWVS | 2.1 ± 0.13 |
| IWMYP | 1.7 ± 0.65 |
| IYAGHRQHGAV | -0.386 ± 0.55 |
| IYAYAIDSFRSLVFFVFMFG | inactive |
| IYFGSCSRLWPHHVNT | 0.436 ± 0.73 |
| IYGAAFVAEGWTPTLSVGDK | 0.141 ± 0.39 |
| IYGGRIS | -0.557 ± 0.75 |
| IYGWVHTSMRMRVGTAVLPR | 0.375 ± 0.54 |
| IYINVP | 0.764 ± 0.38 |
| IYSNEELIMRVVNQY | 0.856 ± 0.58 |
| KAEMFNYLTNHTP | -0.033 ± 1.1 |
| KANACGRFTN | 3.72 ± 0.1 |
| KAVYVVNGLFVHCVTR | 0.267 ± 0.21 |
| KCIGKHEAVMKIFNWDEENW | 1.73 ± 0.49 |
| KCNVTQFVRSLYIRMSMLLH | 0.534 ± 0.39 |

| Substance | amyloid nucleation score |
| --- | --- |
| KCRVHSSN | -1.08 ± 1.5 |
| KCTVDQTSNIAACTSVGLCI | 5.36 ± 0.093 |
| KCWLHCWWTVNKTLRYAVRS | -0.531 ± 0.47 |
| KCYIVSLNNVGCFTNASS | 5.13 ± 0.072 |
| KDGFTSRAWPHMFKSLRSQL | 1.07 ± 0.63 |
| KDHNVGMYLAGENCHLG | 0.915 ± 0.9 |
| KDLEPVSARMFLLLLICLA | 0.057 ± 0.52 |
| KFLRGYSCNVRSRPTRDRSV | inactive |
| KFRRLQARFASMMSSTFT | 1.82 ± 0.14 |
| KFSGWHLHGDLCRIHALEVW | 0.457 ± 0.27 |
| KFWTGPIRYVN | -0.149 ± 0.31 |
| KGYGRFMSFF | -0.697 ± 0.4 |
| KGYLLRWLGEVYFVNYGSNS | -0.585 ± 0.84 |
| KILVVGHRESIMCTDSYIMW | -0.294 ± 0.59 |
| KISCIISWLYDFIIKLAFFT | -0.931 ± 0.68 |
| KIVCLKFYVIDMRSMLTVVS | 2.54 ± 0.088 |
| KIVSEFCL | 0.36 ± 0.36 |
| KKDSTYSRSRLDPFRLSVSV | -0.14 ± 0.5 |
| KKFFKYELFEVCIFLGYRCS | 0.493 ± 1.2 |
| KKGLLIVVVAHSERYVVDIA | -0.547 ± 0.44 |
| KKMRGTFIRFIYRLFFLRYA | 0.656 ± 0.5 |
| KLFGTAYS | -0.847 ± 0.96 |
| KLFSK | inactive |
| KLIVWDKCSTCHSDVVLLFK | 0.734 ± 0.97 |
| KLKQVCPLTPVSRVSEQGKK | -0.441 ± 1.1 |

| Substance | amyloid nucleation score |
| --- | --- |
| KLLPYMYCHYN | 1.27 ± 0.39 |
| KLLVLLNN | inactive |
| KLLWSPYSGCVVYNIKVKGR | 3.67 ± 0.13 |
| KLNLKFYAFYNM | 5.49 ± 0.073 |
| KLPIAGCYRVINCTVRGE | -0.008 ± 0.26 |
| KLQLVSLWQ | 2.77 ± 0.11 |
| KLSDSSLTKCRYSHFYRSSM | -1.99 ± 2.4 |
| KLTCRDSRFVRAIFVMSKSA | -0.458 ± 0.3 |
| KLVLSYRYNDG | 2.17 ± 0.18 |
| KLVTAPISKSLF | 0.55 ± 0.92 |
| KMKLRHTSCRFSREVTDVY | 0.614 ± 0.32 |
| KMLVSDTNGESSPLL | 0.124 ± 0.39 |
| KNDNAYCGWSWLLLTDSVHF | -0.836 ± 0.42 |
| KNDVASLLLGSMLKANSTCC | 0.413 ± 1.4 |
| KNFDHVKDHIVFQVL | -1.27 ± 1 |
| KNFRRYWGPSLIEIG | 1.13 ± 0.85 |
| KNKGCGGKAEYTLAPIEISM | 0.364 ± 0.55 |
| KNNVDSKHS | 0.021 ± 0.52 |
| KNVSRVCV | inactive |
| KPLILLCHLMGTMSTKCKDM | -0.098 ± 0.26 |
| KREFQCWTSACFFDISSAEL | 0.34 ± 0.79 |
| KRRGSFKVLYSHSVGLYQSF | 2.79 ± 0.14 |
| KRRVSLCMPWVGSDRRVFMG | 0.377 ± 0.31 |
| KRSRYSKR | 0.103 ± 0.48 |
| KRTHSTLHK | 0.36 ± 0.38 |

| Substance | amyloid nucleation score |
| --- | --- |
| KSCTCRNSSYRYVHINLARY | -0.253 ± 0.6 |
| KSGDMWW | 0.087 ± 0.37 |
| KSGTAFLFFKMI | 0.399 ± 0.31 |
| KSQCWRSGLVLFNA | -0.243 ± 0.36 |
| KTCWTILSVLLTLK | 0.489 ± 0.58 |
| KTGARYSLSACYLTRTDYHW | 0.056 ± 0.43 |
| KTHQLTSRTEWLYGVGVSAQ | -1.78 ± 2.4 |
| KTLFMITYFGL | 0.85 ± 0.26 |
| KTRLSWYWKITCLLHSMKFS | -0.12 ± 0.4 |
| KTRNCTNFWLQRGTW | -0.28 ± 0.76 |
| KTSFSCSIRSSYVDWGLGDS | 2.66 ± 0.12 |
| KTYRAIQLSYRIPMKMFRFD | -0.3 ± 0.25 |
| KVCLRRAAYYRVLVHSCHFR | -0.585 ± 0.43 |
| KVEVWRVLGNSVQRRFSKDQ | 0.353 ± 1.1 |
| KVIRLIFRGY | 0.871 ± 0.64 |
| KVLWMSSHLYSATSCCVKRS | 1.82 ± 0.34 |
| KWHTRENCFSFLYVYFLMFP | inactive |
| KWKVR | -0.068 ± 0.38 |
| KWTLTRLYVACRYNDHSRLS | 1.07 ± 0.39 |
| KWVEIITLCMEIWNLYIVCE | -0.048 ± 0.92 |
| KWYERLCIRATLKATLGYFT | 0.055 ± 0.69 |
| KYMFRARCKRMTFGYPG | -1.58 ± 1.4 |
| KYRSCGNGIPLIISHLLVER | 0.317 ± 0.26 |
| KYVIKCTSWVGAMTHSSSKA | 0.333 ± 0.24 |
| KYVIMLNLKSEL | 3.4 ± 0.091 |

| Substance | amyloid nucleation score |
| --- | --- |
| KYVSYQGQVDCSCKSVL | -0.182 ± 0.45 |
| KYWLMSLLAVKPSSRDSYGQ | -0.239 ± 0.28 |
| LACYDQPATSRSTAGSCPVP | 1.55 ± 0.7 |
| LAEHHWYWAEMIWSRGHEFT | 0.158 ± 0.44 |
| LAILMMCLLWTDLAKVLCPH | -0.015 ± 0.69 |
| LAPALRTETQICRRIHSVQL | 1.62 ± 0.26 |
| LAVFRCAARYYWNSFCLSRT | 0.03 ± 0.21 |
| LAWCNY | 0.765 ± 0.57 |
| LAWLFYGFEIKL | 0.241 ± 0.9 |
| LAWLQCRAGETFITWRHQFY | 0.544 ± 0.55 |
| LAWTMSQQIGETRRGAEMCT | 0.106 ± 0.33 |
| LCAFMSYLSSIFSRYNCFYV | 0.268 ± 0.19 |
| LCALG | -0.434 ± 1.2 |
| LCALVRICFPMADYEGRGGC | 2.33 ± 0.14 |
| LCCYAVYGLCLMHTYNWGCD | 0.564 ± 0.73 |
| LCDLWQHFSSSNVTGGLRRN | 0.966 ± 0.54 |
| LCITRT | -0.521 ± 0.56 |
| LCLDVLSGLCYFYLQ | 0.622 ± 0.59 |
| LCMKFSAVFWELKRV | 0.498 ± 0.52 |
| LCMNCVIQSDKRSSLLCYER | -0.636 ± 1.2 |
| LCNFDSGFGNYGLL | -0.17 ± 0.52 |
| LCNPQYM | 1.38 ± 0.69 |
| LCRMFRIVAVGYMDQRCRT | 0.479 ± 0.49 |
| LCSIKNSLMECLWYDL | -0.177 ± 0.33 |
| LDCAKTVVTGVVLGRQLCQN | 0.662 ± 0.39 |

| Substance | amyloid nucleation score |
| --- | --- |
| LDFKDSGLYLPYKGNYGSV | 0.378 ± 0.68 |
| LDGTAYVDFVVCLEGGTDVI | -0.18 ± 0.37 |
| LDGTGWYCCQYSGGLYSLCG | -0.073 ± 0.31 |
| LDILMGGGHTEDCTLPGHLS | 0.307 ± 0.36 |
| LDLGEV | 0.025 ± 0.36 |
| LDNLWYL | 0.623 ± 0.88 |
| LDRKIK | 0.651 ± 0.39 |
| LDRMFSVVRNNVTTSVLSEK | 0.234 ± 0.32 |
| LDTDFSPCRTAVLVAIMHRG | 0.415 ± 0.74 |
| LDVFPNYASRCTWAVDASFL | -0.703 ± 2.1 |
| LDVLLLLMDCSRYPKIKGGI | -0.012 ± 0.43 |
| LDVRAIRYILK | -0.252 ± 1.4 |
| LDVTSDFCTMI | 0.5 ± 0.38 |
| LDYLTTRKANVHRGCVALML | -1.27 ± 0.78 |
| LDYPISVIVPGTDQSLEFLP | inactive |
| LEDHVWKVVVYLSKNDVCMG | 0.269 ± 0.67 |
| LEGHNCADQLLSFLTSSYSL | 1.34 ± 0.44 |
| LEGSNSFNLRNLQFALRGTL | 0.069 ± 0.45 |
| LEHHCAHCIGEVTINIKRFP | 0.306 ± 0.41 |
| LELDRFDNFRYGSAPRCYLP | inactive |
| LELSKTISMPVSMNRFWVIR | -1.39 ± 1.2 |
| LESFWGSPA | 0.445 ± 1.2 |
| LFAPPYLLAVMEE | 0.97 ± 0.72 |
| LFCFNRVD | inactive |
| LFFHSKYMQRLKL | 0.183 ± 0.72 |

| Substance | amyloid nucleation score |
| --- | --- |
| LFFRIYDHCNEHEKCVV | inactive |
| LFFSYMQLVTNSTCTYLRVF | 1.24 ± 0.74 |
| LFFVPMARVW | 0.01 ± 0.54 |
| LFIRYALSFESMWL | 0.586 ± 0.52 |
| LFKSQFEFFEVGSVEDEFFR | inactive |
| LFLLEINVSSRIWPSFPKSY | 0.257 ± 0.42 |
| LFMFRLKYVIHWDIG | 0.911 ± 0.54 |
| LFMGVRTKVNGSAVI | 0.183 ± 0.17 |
| LFVGWYYYSVFSFV | inactive |
| LFVLLQHLAATFYVQVLTSR | -0.028 ± 0.89 |
| LFVNFGTLS | 0.391 ± 0.41 |
| LFVTCPHLSTQ | 1.26 ± 0.69 |
| LFWNFRRTGAGLAAGLVVGL | -0.885 ± 1.4 |
| LFYVMWWMAGVGLRRGYWAN | inactive |
| LGASGLGCIF | 4.56 ± 0.055 |
| LGCLFNAGAFWAYGGMVSLH | -0.024 ± 0.57 |
| LGCLQLITSERGPDYYKVAT | 0.218 ± 0.41 |
| LGDVSRYFCCIQGNNYRM | 5.51 ± 0.057 |
| LGFCTLFISMEDQLCVLQIL | -0.546 ± 1.2 |
| LGIVSCTSQNPNGVDTSIFG | 0.117 ± 1.4 |
| LGKRDFSGFSAKSQLFK | -0.613 ± 0.27 |
| LGQLNFLMWYPKYECRIYMG | 6.656 ± 0.058 |
| LGSNNWVFGYGR | inactive |
